# Patent publication US12064464B2, “Plantaricin NC8 alpha beta markedly enhances the effects of antibiotics” (priority 2018, dated 2024)
# Entries after “also recorded” stand apart in the source; their conditions may differ.
# Tests used:
# [1] = test system: antibiotic resistant bacteria; experiment: Combination of PLNC8 αβ with antibiotics, summary over tested bacteria; format: cell-based; details: wide range of antibiotics
# Experimental: (§1) The broth microdilution method was used to determine minimal inhibitory concentration (MIC) and minimal bactericidal concentration (MBC). Two-fold serial dilutions of the peptides were used and the final concentrations ranged from 0.097-50 μM. […] The effect of bacteriocin-antibiotic combinations was accomplished by using the same concentration series of antibiotics with a constant concentration of PLNC8 αβ (3.1 μM) in all the wells. […] All experiments were repeated at least three times.
# [2] = test system: keratinocytes infected by S. aureus; experiment: IncuCyte live-cell analysis of infected keratinocytes; format: cell-based, human
# Experimental: (§2) HaCaT cells were cultured overnight in a 24-well plate at a seed-count of 2×10^5 cells per well. […] Co-stimulation was performed by infection of human keratinocytes, in the presence or absence of PLNC8 αβ, for 24 h, or infection of the cells for 1 h followed by addition of different concentrations of PLNC8 αβ for 6 h. Furthermore, infection of keratinocytes, with or without PLNC8 αβ, were monitored in real-time for 72 hours using IncuCyte Live-cell Analysis System. Bacterial load was quantified by measuring the fluorescence of green fluorescent protein (GFP) and cell viability was determined by measuring the fluorescent dye Draq7 that stains nuclei of dead cells.
# HaCaT cells = experiment: Scratch assay and ELISA on keratinocytes; format: cell-based, human; details: uninfected cells, 24 h
# Experimental: Human keratinocytes (HaCaT) were cultured in Dulbecco's modified Eagle medium (DMEM, Fisher Scientific, New York, USA) supplemented with 10% FBS (FBS, Invitrogen Ltd, Paisley, UK) incubated in a stable environment at 95% air, 5% CO2 and 37° C. The cells were used at passages 1-20.
# as §2
# ELISA was performed on supernatants retrieved from human keratinocytes that were exposed to MSSA and PLNC8 αβ. The levels of CXCL8 (Human IL-8 ELISA MAX Deluxe, Nordic Biosite, Sweden) and IL-6 (Human IL-6 ELISA MAX Deluxe, Nordic Biosite, Sweden) were quantified according to the manufacturer's instructions.
# [3] = test system: wounds infected with S. aureus; experiment: Porcine wound model; format: in vivo, pig; details: PLNC8αβ 50 μM, every other day, 7 days
# Excerpt: Three wounds were created per condition with the following conditions: control (PBS), […]/gentamicin and […]8 αβ. […] The pig was returned to the pen and monitored during recovery from anesthesia. […] This procedure was repeated every other day for seven days (a total of four doses of treatment of the infected wounds).
# [4] = test system: S. epidermidis ATCC 12228; experiment: Broth microdilution MIC/MBC; format: cell-based, Staphylococcus epidermidis
# Excerpt: (§3) Staphylococcus aureus CCUG 35601 (MRSA, Culture Collection, University of Gothenburg) and Staphylococcus aureus ATCC 29213 (MSSA, ATCC, Manassas, VA). Staphylococcus epidermidis ATCC 12228 (ATCC, Manassas, VA), RP62A, N15 and 10 clinical isolates of Staphylococcus epidermidis that have previously been characterized. Isolated Escherichia coli, Enterococcus faecium (including VRE), Pseudomonas aeruginosa, Klebsiella pneumoniae, Enterobacter spp and Acinetobacter baumannii were obtained from Orebro University hospital. Isolated Streptococcus mutans, Streptococcus constellatus and Streptococcus anginosus were obtained from Malmo University. The bacteria were grown on Luria-Bertani (LB) agar plates, supplemented with 5% defibrinated horse blood, and incubated at 37° C. overnight. Single colonies were inoculated into 5 ml of LB broth and incubated on a shaker (300 rpm) at 37° C. overnight. The bacterial concentration was determined by viable count and adjusted to correlate with approximately 10^9 CFU/ml.
# as §1
# S. epidermidis RP62A = experiment: Broth microdilution MIC/MBC; format: cell-based, Staphylococcus epidermidis; details: Table 1, peptide alone, 20 h; no unit in table, μM
# Excerpt: as §3, §1
# [5] = test system: S. epidermidis 126 (hGISE strain); experiment: Broth microdilution MIC/MBC; format: cell-based, Staphylococcus epidermidis; details: Table 3, peptide alone
# Excerpt: as §3, §1
# S. epidermidis N15 = experiment: Broth microdilution MIC/MBC; format: cell-based, Staphylococcus epidermidis; details: Table 1, peptide alone, 20 h; no unit in table, μM
# Excerpt: as §3, §1
# S. epidermidis 117 = experiment: Broth microdilution MIC/MBC; format: cell-based, Staphylococcus epidermidis; details: Table 1, peptide alone, 20 h; no unit in table, μM
# Excerpt: as §3, §1
# S. epidermidis 154 = experiment: Broth microdilution MIC/MBC; format: cell-based, Staphylococcus epidermidis; details: Table 3, peptide alone
# Excerpt: as §3, §1
# [6] = test system: S. epidermidis 157 (hGISE strain); experiment: Broth microdilution MIC/MBC; format: cell-based, Staphylococcus epidermidis; details: Table 3, peptide alone
# Excerpt: as §3, §1
# [7] = test system: S. aureus (MSSA and MRSA); experiment: Sytox Green lysis and time-kill assay; format: cell-based, Staphylococcus aureus
# Experimental: The fluorescent dye Sytox® Green, which can only cross damaged membranes and fluoresce upon binding to nucleic acids, was used to study the antimicrobial activity of PLNC8 αβ on S. epidermidis, S. aureus (MSSA, MRSA) and Streptococcus spp. The bacteria were washed and resuspended in Krebs-Ringer Glucose buffer (KRG) (120 mM NaCl, 4.9 mM KCl, 1.2 mM MgSO4, 1.7 mM KH2PO4, 8.3 mM Na2HPO4, and 10 mM glucose, pH 7.3) and incubated in the presence or absence of different combinations of PLNC8 αβ in 96-well microtiter plates for 2 min. Images were captured with Olympus BX41 at 40× magnification.
# [8] = test system: S. epidermidis RP62A biofilms; experiment: Bacterial biofilm disruption; format: cell-based, Staphylococcus epidermidis; details: 1 h
# Experimental: S. epidermidis RP62A was inoculated into 5 ml of LB broth and incubated on a shaker at 37° C. overnight. The bacterial culture was diluted 1:100 into fresh media and 100 μl of bacterial suspension per well was added in a 96-well microtiter plate and incubated statically at 37° C. for 20 h. The wells were washed three times by submerging the plate into a container with distilled water to remove unattached cells. Fresh LB media was added to each well (100 μl) followed by addition of the peptides in different concentrations. The plate was incubated statically for 1 h. Detached material in the wells were transferred to a new microtiter plate for absorbance measurements at 620 nm. The remaining attached biofilms were stained with 0.1% crystal violet for 15 min before the plate was washed four times in distilled water as mentioned above and allowed to dry at room temperature for 2 h. The crystal violet was solubilized in 30% acetic acid for 15 min and the absorbance quantified at 550 nm. Each experiment, with three replicates, was repeated three times.
# Porphyromonas gingivalis = details: references 1, 2; cited from earlier work
# [9] = Table 1, peptide alone, 20 h, no unit in table, μM
molecule,measurement,setting,value
PLNC8 αβ: two-peptide class IIb bacteriocin of L. plantarum NC8: PLNC8 α (SEQ ID NO 1) with PLNC8 β (SEQ ID NO 2) (Lactobacillus plantarum NC8) alpha: DLTTKLWSSWGYYLGKKARWNLKHPYVQF beta: SVPTSVYTLGIKILWSAYKHRKTIEKSFNKGFYH,enhancement of the effects of antibiotics,[1],2-130 fold
same,bacterial growth (GFP fluorescence) prevented and delayed,[2]; S. aureus MOI:0.1,up to 38 h
same,time for which a single dose prevented bacterial growth and protected the cells,[2]; S. aureus MOI:0.1,up to 42 h
same,time for which a single dose prevented bacterial growth and protected the cells,[2]; S. aureus MOI:1,up to 32 h
same,IL-6 and CXCL8,HaCaT cells,not altered
same,wound healing (scratch assay),HaCaT cells,promoted wound healing in vitro
same,infection and wound healing in vivo,[3],inhibited infection and promoted wound healing in vivo
same,molar ratio PLNC8 α to PLNC8 β for inhibiting and killing,[4]; 20 h,molar ratio of 1:1 is most efficient at inhibiting and killing S. epidermidis; also recorded: ratios between 1:1 and 1:7 were also found to be effective
same,molar ratio PLNC8 α to PLNC8 β for inhibiting and killing,"[4]; 20 h, listed as PLNC8αβ",molar ratio of 1:1 is most efficient at inhibiting and killing S. epidermidis
same,MBC,[4]; [9],12.5 µM
same,MIC,[4]; [9],6.25 µM
same,MBC,"[4]; Table 2, peptide alone",12.5 µM
same,MIC,"[4]; Table 2, peptide alone",6.25 µM
same,MBC,S. epidermidis RP62A,6.25 µM
same,MIC,S. epidermidis RP62A,6.25 µM
same,MBC,[5],50 µM
same,MIC,[5],12.5 µM
same,MBC,S. epidermidis N15,6.25 µM
same,MIC,S. epidermidis N15,6.25 µM
same,MBC,S. epidermidis 117,12.5 µM
same,MIC,S. epidermidis 117,12.5 µM
same,MBC,S. epidermidis 154,12.5 µM
same,MIC,S. epidermidis 154,6.25 µM
same,MBC,[6],>50 µM
same,MIC,[6],12.5 µM
same,lysis and killing of S. aureus,[7],dose-dependently and rapidly lysed and killed S. aureus
same,disruption of biofilms,[8],efficiently disrupted the biofilms and killed the bacteria
same,activity against Porphyromonas gingivalis,Porphyromonas gingivalis,efficient against the periodontal pathogen Porphyromonas gingivalis
